Laboratory results as given in patent US20100086552A1 (VALTION TEKNILLINEN TUTKIMUSKESKUS, published 2010).
Residue numbers refer to the chain shown, from its start.

B1: D1 IgE Fab (human anti-β-lactoglobulin Fab fragment with human IgG1 subtype, derived from the D1 scFv of a human IgE scFv phage library) (Fab, V domains shown)
VH: QVSLRESGGGLVQPGRSLRLSCTASGFTFRHHGMTWVRQAPGKGLEWVASLSGSGTKTHFADSVKGRFTISRDNSNNTLYLQMDNVRDEDTAIYYCAKAKRVGATGYFDLWGRGTLVTVSS
VL: DIVMTQSPSSLSASVGDRVTITCRASQGISSRLAWYQQKPGKAPKLLIYAASSLQSGVPSRFSGSGSGTEFTLTISSLQPEDFATYYCQQYHSYPWTFGQGTKVEIKR
notes: it was made in E. coli RV308 and purified on nickel; also called D1/Fab; Fab/D1

Legend:
[1] = target: T1, native bovine milk β-lactoglobulin (nBLG, Sigma) (bovine, UniProt P02754 17-178, biotinylated where immobilised on streptavidin wells or chips; the soluble competitor and the crystallised protein are not biotinylated); assay: competitive ELISA: biotinylated BLG AB dimer on streptavidin wells, KRVG peptide incubated with the immobilised BLG, wells washed or not washed, then D1 IgE Fab (the blocked ligand); AFOS-conjugated goat anti-human kappa antibody, A405
T1 construct: also called native BLG; β-lactoglobulin AB dimer
T1 sequence: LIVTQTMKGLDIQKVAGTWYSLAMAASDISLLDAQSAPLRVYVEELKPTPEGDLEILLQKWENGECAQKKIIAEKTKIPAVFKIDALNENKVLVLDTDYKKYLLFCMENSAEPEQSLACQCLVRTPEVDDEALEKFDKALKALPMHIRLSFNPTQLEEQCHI

[2] = target: T1, native bovine milk β-lactoglobulin …; assay: BIAcore SPR, biotinylated nBLG on streptavidin chip, D1 IgE Fab as analyte (1.1-138.9 nM)
[3] = target: T2, rBLG-His6 (recombinant bovine β-lactoglobulin with C-terminal His6 tag) (bovine, UniProt P02754 17-178, biotinylated with Sulfo-NHS-LC-biotin (2 mol biotin : 1 mol protein) for immobilisation); assay: BIAcore SPR, biotinylated rBLG-His6 on streptavidin chip, D1 IgE Fab as analyte (1.1-138.9 nM)
T2 construct: It was secreted to the E. coli periplasm through a pelB signal that is not part of the entry; also called recombinant BLG
T2 chain: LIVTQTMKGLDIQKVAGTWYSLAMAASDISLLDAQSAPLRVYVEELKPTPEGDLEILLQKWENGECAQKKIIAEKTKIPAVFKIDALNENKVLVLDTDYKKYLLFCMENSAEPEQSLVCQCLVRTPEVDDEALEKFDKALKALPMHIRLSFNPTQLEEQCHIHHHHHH

rBLG-His6 T18Y = target: T3, rBLG-His6 T18Y (bovine, UniProt P02754 17-178, biotinylated with Sulfo-NHS-LC-biotin (2 mol biotin : 1 mol protein) for immobilisation); assay: BIAcore SPR, biotinylated rBLG-His6 T18Y on streptavidin chip, D1 IgE Fab as analyte (1.1-138.9 nM)
T3 chain: T2 chain with T18Y

bsa = target: T4, bsa (Bos taurus (bovine), UniProt P02769); assay: ELISA: D1 IgE Fab on wells with bovine serum albumin, AFOS-conjugated goat anti-human kappa antibody, A405 after 20 min
T4 construct: also called bovine serum albumin

rBLG-His6 T18Y/E45Y/L57Y = target: T5, rBLG-His6 T18Y/E45Y/L57Y (bovine, UniProt P02754 17-178, biotinylated with Sulfo-NHS-LC-biotin (2 mol biotin : 1 mol protein) for immobilisation); assay: ELISA: 1 µg biotinylated BLG on streptavidin wells, D1 IgE Fab, AFOS-conjugated goat anti-human kappa antibody, A405 after 20 min
T5 construct: also called Triple mutant; Triple
T5 chain: T2 chain with T18Y, E45Y, L57Y

T4 sequence (P02769 25-607 limits assumed): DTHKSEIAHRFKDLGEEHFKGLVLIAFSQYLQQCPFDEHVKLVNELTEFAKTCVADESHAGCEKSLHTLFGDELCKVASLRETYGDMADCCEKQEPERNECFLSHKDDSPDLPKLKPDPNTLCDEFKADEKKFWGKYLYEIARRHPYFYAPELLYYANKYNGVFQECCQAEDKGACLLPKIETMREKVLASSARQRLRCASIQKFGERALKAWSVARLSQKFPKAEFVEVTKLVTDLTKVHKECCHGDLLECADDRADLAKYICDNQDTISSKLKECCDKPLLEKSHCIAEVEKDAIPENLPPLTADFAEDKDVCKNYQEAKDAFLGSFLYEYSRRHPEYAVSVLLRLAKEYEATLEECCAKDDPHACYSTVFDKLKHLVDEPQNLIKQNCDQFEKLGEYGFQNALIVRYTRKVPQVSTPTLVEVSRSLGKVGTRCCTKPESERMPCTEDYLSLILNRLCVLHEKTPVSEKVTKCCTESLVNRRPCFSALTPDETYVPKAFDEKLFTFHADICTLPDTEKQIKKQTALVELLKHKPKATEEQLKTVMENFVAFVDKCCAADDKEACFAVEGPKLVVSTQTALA

Binder	binding result [1]	Ka [2] [M⁻¹]	Kd [2] [nM]	koff [2] [s⁻¹]	kon [2] [M⁻¹ s⁻¹]	Ka [3] [M⁻¹]	Kd [3] [nM]	koff [3] [s⁻¹]	kon [3] [M⁻¹ s⁻¹]	Ka (rBLG-His6 T18Y) [M⁻¹]	Kd (rBLG-His6 T18Y) [nM]	koff (rBLG-His6 T18Y) [s⁻¹]	kon (rBLG-His6 T18Y) [M⁻¹ s⁻¹]	binding result (bsa)	binding result (rBLG-His6 T18Y/E45Y/L57Y)
KRVG [peptide KRVG (from the HCDR3 of D1 IgE Fab)]	binds	–	–	–	–	–	–	–	–	–	–	–	–	–	–
B1	–	3.7e+08	2.7	0.0048	1.8e+06	1.2e+08	8.5	0.0082	961000	1.6e+06	610	0.082	130000	no binding (tested: 1:15000 dilution of 1.6 mg/ml)	no binding (tested: 1:15000 dilution of 1.6 mg/ml)
